Data as given in US20260098095A1 (Hoffmann-La Roche, published 2026).

Columns and labels:
Assay in all cases: cell-based or functional assay
T9A = T9A (human)
[1] = biological target: T1, HLA-A2/MAGE-A4 peptide MHC (pMHC) complex on cells (human)
R6A = R6A (human)
E7A = E7A (human)
V2A = V2A (human)
Y3A = Y3A (human)
G1A = G1A (human)
V10A = V10A (human)
G5A = G5A (human)
H8A = H8A (human)
D4A = D4A (human)
[2] = biological target: T1, HLA-A2/MAGE-A4 peptide MHC (pMHC) …; remark: listed apart in the source
[3] = biological target: T1, HLA-A2/MAGE-A4 peptide MHC (pMHC) …; remark: listed apart in the source
VPS13D = VPS13D (human)
FBXO34 = FBXO34 (human)
PIGG = PIGG (human)
URB1 = URB1 (human)
UBE2V2 = UBE2V2 (human)
CRMP1 = CRMP1 (human)
UNC80 = UNC80 (human)
MTOR = MTOR (human)
[4] = biological target: HLA-A2 with peptide MAGB6 on T2 cells (human)
DYNC1H1 = DYNC1H1 (human)
SLC45A1 = SLC45A1 (human)
ARF3 = ARF3 (human)
KEAP1 = KEAP1 (human)
DPYSL3 = DPYSL3 (human)
ARF1 = ARF1 (human)
EDC3 = EDC3 (human)
BNRF1 = BNRF1 (human)
gutQ = gutQ (human)
PKP1 = PKP1 (human)
DPYSL4 = DPYSL4 (human)
KDM1A = KDM1A (human)
CCS = CCS (human)
MAGEB2 = MAGEB2 (human)
GAPDHS = GAPDHS (human)
pfkA = pfkA (human)
[5] = biological target: T1, HLA-A2/MAGE-A4 peptide MHC (pMHC) …; remark: listed apart in the source

B1: Molecule A (bispecific antibody, V domains shown)
VH 1: YVQLVESGGGLVKPGGSLRLSCAAPLPFTGLDMSWVRQAPGKGLEWVGSISPKGGSTYYNDNVLGRFTISRDNSKNTLYLQMNSLRAEDTAVYYCARDWGFFDLWGQGTLVTVSS
VL 1: AIQMTQSPSSLSASVGDRVTITCRASQSISNYLAWYQQKPGKAPKLLIYDANAHENDVPSRFSGSGSGTDFTLTISSLQPEDFATYYCQQYSSHPYTFGQGTKLEIK
VH 2: not shown
VL 2: QAVVTQEPSLTVSPGGTVTLTCGSSTGAVTTSNYANWVQEKPGQAFRGLIGGTNKRAPGTPARFSGSLLGGKAALTLSGAQPEDEAEYYCALWYSNLWVFGGGTKLTVL
In the case of B1, the “EC50, Jurkat-NFAT activation” value (T9A) is reported as 0.0383 nM, the “EC50, Jurkat-NFAT activation” value [1] is reported as 0.0105 nM and the “EC50, Jurkat-NFAT activation” value (R6A) is reported as 40.1 nM. For the same binder, the “EC50, Jurkat-NFAT activation” value (E7A) was 0.1 nM, the “EC50, Jurkat-NFAT activation” value (V2A) was 0.0184 nM and the “EC50, Jurkat-NFAT activation” value (Y3A) was 5.27 nM. For the same binder, the “EC50, Jurkat-NFAT activation” value (G1A) was 40.1 nM, the “EC50, Jurkat-NFAT activation” value (V10A) was 0.029 nM and the “EC50, Jurkat-NFAT activation” value (G5A) was 0.0056 nM. The “EC50, Jurkat-NFAT activation” value (H8A) was 0.044 nM, the “EC50, Jurkat-NFAT activation” value (D4A) was 51.6 nM and the “EC50 [pM], T-cell mediated lysis of A-375 cells, 24 h” value [2] was 1210 pM. The “EC50 [pM], T-cell mediated lysis of C-33A cells, 24 h” value [2] was 225 pM, the “EC50 [pM], T-cell mediated lysis of IM-9 cells, 24 h” value [2] was 43.4 pM and the “EC50 [pM], T-cell mediated lysis of NCI-H1755 cells, 24 h” value [2] was 9.4 pM. The “EC50 [pM], T-cell mediated lysis of NCI-H2023 cells, 24 h” value [2] was 2090 pM, the “EC50 [pM], T-cell mediated lysis of UMUC-3 cells, 24 h” value [2] was 775 pM and the “EC50 [pM], activation of Jurkat-NFAT reporter cells (luminescence, 6 h) with MAGE-A4 peptide pulsed T2 cells” value [3] was 30.3 pM. For the same binder, the “% of MAGE-A4 signal, Jurkat-NFAT” value (VPS13D) was 0.67%, the “% of MAGE-A4 signal, Jurkat-NFAT” value (FBXO34) was 0.46% and the “% of MAGE-A4 signal, Jurkat-NFAT” value (PIGG) was 0.7%. For the same binder, the “% of MAGE-A4 signal, Jurkat-NFAT; grey (>2%)” value (“% of MAGE-A4 signal … (>2%)” for short) (URB1) was 80.5%, the “% of MAGE-A4 signal, Jurkat-NFAT” value (UBE2V2) was 0.75% and the “% of MAGE-A4 signal, Jurkat-NFAT” value (CRMP1) was 1.74%. The “% of MAGE-A4 signal, Jurkat-NFAT” value (UNC80) was 0.48%, the “% of MAGE-A4 signal, Jurkat-NFAT” value (MTOR) was 0.41% and the “% of MAGE-A4 signal … (>2%)” value [4] was 22.4%. For the same binder, the “% of MAGE-A4 signal, Jurkat-NFAT” value (DYNC1H1) was 0.4%, the “% of MAGE-A4 signal, Jurkat-NFAT” value (SLC45A1) was 0.39% and the “% of MAGE-A4 signal, Jurkat-NFAT” value (ARF3) was 0.92%. The “% of MAGE-A4 signal, Jurkat-NFAT” value (KEAP1) was 0.39%, the “% of MAGE-A4 signal … (>2%)” value (DPYSL3) was 32.9% and the “% of MAGE-A4 signal, Jurkat-NFAT” value (ARF1) was 0.67%. The “% of MAGE-A4 signal, Jurkat-NFAT” value (EDC3) was 0.9%, the “% of MAGE-A4 signal, Jurkat-NFAT” value (BNRF1) was 0.47% and the “% of MAGE-A4 signal, Jurkat-NFAT” value (gutQ) was 0.64%. The “% of MAGE-A4 signal, Jurkat-NFAT” value (PKP1) was 0.5%, the “% of MAGE-A4 signal, Jurkat-NFAT” value (DPYSL4) was 1.68% and the “% of MAGE-A4 signal, Jurkat-NFAT” value (KDM1A) was 0.5%. For the same binder, the “% of MAGE-A4 signal … (>2%)” value (CCS) was 3.06%, the “% of MAGE-A4 signal, Jurkat-NFAT” value (MAGEB2) was 0.83% and the “% of MAGE-A4 signal, Jurkat-NFAT” value (GAPDHS) was 0.91%. The “% of MAGE-A4 signal, Jurkat-NFAT” value (pfkA) was 0.58% and the “EC50 [pM] 24 h, T-cell mediated lysis of MAGE-A4 peptide pulsed T2 cells” value [5] was 1.2 pM.

B2: Molecule C (bispecific antibody, V domains shown)
VH 1: TQQLVESGGGLVQPGGSLRLSCAASGFSFSFDTMSWVRQAPGKGLEWVGSISPSGGSTYYNDNVLGRFTISRDNSKNTLYLQMNSLRAEDTAVYYCARDHGYFDMWGQGTLVTVSS
VL 1: DIQMTQSPSSLSASVGDRVTITCRASQSISSYLAWYQQKPGKAPKLLIYDASWLELGVPSRFSGSGSGTDFTLTISSLQPEDFATYYCQQYSSYPYTFGQGTKLEIK
VH 2: not shown
VL 2: QAVVTQEPSLTVSPGGTVTLTCGSSTGAVTTSNYANWVQEKPGQAFRGLIGGTNKRAPGTPARFSGSLLGGKAALTLSGAQPEDEAEYYCALWYSNLWVFGGGTKLTVL
With B2 the “EC50, Jurkat-NFAT activation” value (T9A) was 0.67 nM, the “EC50, Jurkat-NFAT activation” value [1] was 1.03 nM and the “EC50, Jurkat-NFAT activation” value (R6A) was 4.34 nM. The “EC50, Jurkat-NFAT activation” value (E7A) was 1.22 nM, the “EC50, Jurkat-NFAT activation” value (V2A) was 0.687 nM and the “EC50, Jurkat-NFAT activation” value (Y3A) was 0.626 nM. For the same binder, the “EC50, Jurkat-NFAT activation” value (G1A) was 1.44 nM, the “EC50, Jurkat-NFAT activation” value (V10A) was 13 nM and the “EC50, Jurkat-NFAT activation” value (G5A) was 16.8 nM. The “EC50, Jurkat-NFAT activation” value (H8A) was 3.94 nM, the “EC50, Jurkat-NFAT activation” value (D4A) was 0.738 nM and the “EC50 [pM], T-cell mediated lysis of IM-9 cells, 24 h” value [2] was 2740 pM. For the same binder, the “EC50 [pM], T-cell mediated lysis of NCI-H1755 cells, 24 h” value [2] was 460 pM, the “EC50 [pM], activation of Jurkat-NFAT reporter cells (luminescence, 6 h) with MAGE-A4 peptide pulsed T2 cells” value [3] was 976 pM and the “% of MAGE-A4 signal, Jurkat-NFAT” value (VPS13D) was 0.39%. The “% of MAGE-A4 signal, Jurkat-NFAT” value (FBXO34) was 0.39%, the “% of MAGE-A4 signal, Jurkat-NFAT” value (PIGG) was 0.33% and the “% of MAGE-A4 signal, Jurkat-NFAT” value (URB1) was 0.45%. The “% of MAGE-A4 signal, Jurkat-NFAT” value (UBE2V2) was 0.52%, the “% of MAGE-A4 signal, Jurkat-NFAT” value (CRMP1) was 0.29% and the “% of MAGE-A4 signal, Jurkat-NFAT” value (UNC80) was 0.43%. The “% of MAGE-A4 signal, Jurkat-NFAT” value (MTOR) was 0.26%, the “% of MAGE-A4 signal, Jurkat-NFAT” value (DYNC1H1) was 0.17% and the “% of MAGE-A4 signal, Jurkat-NFAT” value (SLC45A1) was 0.22%. For the same binder, the “% of MAGE-A4 signal, Jurkat-NFAT” value (ARF3) was 0.49%, the “% of MAGE-A4 signal, Jurkat-NFAT” value (KEAP1) was 0.51% and the “% of MAGE-A4 signal, Jurkat-NFAT” value (DPYSL3) was 0.35%. For the same binder, the “% of MAGE-A4 signal, Jurkat-NFAT” value (ARF1) was 0.23%, the “% of MAGE-A4 signal, Jurkat-NFAT” value (EDC3) was 0.48% and the “% of MAGE-A4 signal, Jurkat-NFAT” value (BNRF1) was 0.36%. For the same binder, the “% of MAGE-A4 signal, Jurkat-NFAT” value (gutQ) was 0.36%, the “% of MAGE-A4 signal, Jurkat-NFAT” value (PKP1) was 0.49% and the “% of MAGE-A4 signal, Jurkat-NFAT” value (DPYSL4) was 0.27%. For the same binder, the “% of MAGE-A4 signal, Jurkat-NFAT” value (KDM1A) was 0.24%, the “% of MAGE-A4 signal, Jurkat-NFAT” value (CCS) was 0.29% and the “% of MAGE-A4 signal, Jurkat-NFAT” value (MAGEB2) was 0.34%. The “% of MAGE-A4 signal, Jurkat-NFAT” value (GAPDHS) was 0.37%, the “% of MAGE-A4 signal, Jurkat-NFAT” value (pfkA) was 0.4% and the “EC50 [pM] 24 h, T-cell mediated lysis of MAGE-A4 peptide pulsed T2 cells” value [5] was 121 pM.
